Assay [1] deals with T1, glutathione S-transferase (GST) (UniProt P08515 1-218 = GST). Description: GST pull-down, anti-MUC1/CD immunoblot (FIG. 1B). Background: A western blot detects proteins with antibodies after separation by electrophoresis.
Assay [2] has as its target T1, glutathione S-transferase (GST). The assay is described as follows: GST pull-down, anti-MUC1/CD immunoblot (FIG. 4A).
Method: The proteins in the eight different reaction mixtures were incubated with either GST or GST fused to β-catenin (“GST-β-Cat”). The resulting mixtures were incubated with glutathione-Sepharose 4B™ beads.
The beads were then added to the phosphorylation reaction mixture (described above) which was incubated for 1 h at 4° C.

T1 sequence (P08515 whole entry): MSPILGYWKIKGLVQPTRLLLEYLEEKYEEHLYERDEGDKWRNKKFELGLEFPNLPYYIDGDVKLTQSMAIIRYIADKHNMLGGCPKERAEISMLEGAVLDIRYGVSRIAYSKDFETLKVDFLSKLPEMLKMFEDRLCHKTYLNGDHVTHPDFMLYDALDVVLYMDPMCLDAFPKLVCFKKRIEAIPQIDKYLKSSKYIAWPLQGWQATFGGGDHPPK

B1: MUC1/CD (purified hexahistidine tagged MUC1 cytoplasmic domain), unphosphorylated (other)
chain: CQCRRKNYGQLDIFPARDTYHPMSEYPTYHTHGRYVPPSSTDRSPYEKVSAGNGGSSLSYTNPAVAATSANL
notes: also called His-MUC1/CD; MUC1/CD (WT); not shown: hexahistidine tag
B1: in assay [1], the binding result is on record as “no binding”.

B2: MUC1/CD phosphorylated by c-Src (incubated with c-Src and ATP) (other)
chain: B1 chain
modifications: phosphotyrosine at 46 (YEKV site) and at other sites that are not named; made in vitro with purified c-Src and ATP
notes: also called phosphorylated MUC1/CD; not shown: hexahistidine tag
Regarding B2, the binding result in assay [2] was “no binding”.

Values taken from US20040166543A1 (Dana-Farber, published 2004).
